Results published in paper PMC11961710, “Design and implementation of aerobic and ambient CO2-reduction as an entry-point for enhanced carbon fixation” (Nature Communications, 2025).
Values belong to the molecule of their own block, whether it stands above or below them.

Legend:
BKACE15 = target: T1, BKACE15 (Paracoccus denitrificans, UniProt A1B802); assay: crystal structure at […] Å (with acetyl-CoA); product inhibition measured by LC-MS with purified enzyme; assay type: biochemical
T1 construct: gene Pden_3578
T1 sequence (A1B802 1-310): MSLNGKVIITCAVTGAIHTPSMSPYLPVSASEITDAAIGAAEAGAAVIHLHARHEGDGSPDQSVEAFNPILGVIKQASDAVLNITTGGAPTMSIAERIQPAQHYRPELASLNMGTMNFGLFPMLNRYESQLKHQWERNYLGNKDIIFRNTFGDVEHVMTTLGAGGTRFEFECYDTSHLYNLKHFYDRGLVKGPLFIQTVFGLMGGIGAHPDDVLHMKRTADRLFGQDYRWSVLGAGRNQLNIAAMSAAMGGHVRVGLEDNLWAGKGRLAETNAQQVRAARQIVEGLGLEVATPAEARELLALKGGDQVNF

purified protein [1] = substrate: O=CCC(=O)O; assay: purified protein; assay type: biochemical, Paracoccus denitrificans; settings: Zn2+ MSA must enter the active site first, before acetyl-CoA can bind
purified protein [2] = substrate: CC(=O)SCCNC(=O)CCNC(=O)[C@H](O)C(C)(C)COP(=O)(O)OP(=O)(O)OC[C@H]1O[C@@H](n2cnc3c(N)ncnc32)[C@H](O)[C@@H]1OP(=O)(O)O; assay: purified protein; settings: Zn2+ active site entry channel, fully occupied upon acetyl-CoA binding

IC50 (BKACE15): 1450 ± 160 µM
Molecule: CC(=O)CC(=O)O [AAE, acetoacetate]

B1: BKACE15 (Paracoccus denitrificans PD1222) (protein)
chain: T1 sequence (A1B802 1-310)
Km (purified protein [1]): 830 ± 90 µM | Km (purified protein [2]): 110 ± 10 µM
